Source: paper PMC6303017, “Effects of RNA structure and salt concentration on the affinity and kinetics of interactions between pentatricopeptide repeat proteins and their RNA ligands”

Tests used:
PPR10 [1] = biological target: T1, PPR10 (UniProt B8Y6I0 96-786); test: SPR; 150 mM NaCl; ka ~2e7 M-1s-1; EMSA: 40 mM Tris-HCl pH 7.5, 140 mM NaCl, 10% glycerol, 4 mM DTT, 0.1 mg/mL BSA, 0.5 mg/mL heparin, RNAsin, 5 pM RNA, 25 C, 30 min; SPR: 100 mM HEPES pH 7.5, 150 mM NaCl, 3 mM EDTA, 1 mM 2-mercaptoethanol, 0.005% P20; conditions: protein: recombinant; tags: MBP fusion, MBP cleaved off; label: 3' biotin, 6-carbon linker; unstructured
T1 sequence: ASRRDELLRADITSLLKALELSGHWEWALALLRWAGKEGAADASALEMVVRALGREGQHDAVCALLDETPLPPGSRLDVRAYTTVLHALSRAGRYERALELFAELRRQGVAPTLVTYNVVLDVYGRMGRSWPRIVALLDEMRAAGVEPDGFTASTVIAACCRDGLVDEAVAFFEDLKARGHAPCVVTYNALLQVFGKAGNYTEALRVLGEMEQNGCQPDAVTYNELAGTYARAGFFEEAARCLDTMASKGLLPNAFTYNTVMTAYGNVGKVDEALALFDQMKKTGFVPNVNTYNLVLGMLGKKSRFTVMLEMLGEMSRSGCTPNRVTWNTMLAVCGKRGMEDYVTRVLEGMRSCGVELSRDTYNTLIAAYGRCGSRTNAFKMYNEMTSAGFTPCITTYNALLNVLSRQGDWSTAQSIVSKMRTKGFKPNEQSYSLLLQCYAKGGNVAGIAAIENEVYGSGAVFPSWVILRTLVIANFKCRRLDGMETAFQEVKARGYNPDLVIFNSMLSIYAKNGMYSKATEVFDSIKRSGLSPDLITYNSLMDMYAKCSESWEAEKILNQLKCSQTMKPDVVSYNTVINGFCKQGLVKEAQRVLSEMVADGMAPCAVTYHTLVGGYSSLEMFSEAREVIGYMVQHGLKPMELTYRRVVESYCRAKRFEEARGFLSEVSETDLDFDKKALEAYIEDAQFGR

HCF152 [2] = biological target: T2, HCF152 (UniProt Q9SF38 66-778); test: SPR; 150 mM NaCl; half-life ~2 h; KD ~30-fold lower than earlier EMSA; EMSA: 40 mM Tris-HCl pH 7.5, 140 mM NaCl, 10% glycerol, 4 mM DTT, 0.1 mg/mL BSA, 0.5 mg/mL heparin, RNAsin, 5 pM RNA, 25 C, 30 min; SPR: 100 mM HEPES pH 7.5, 150 mM NaCl, 3 mM EDTA, 1 mM 2-mercaptoethanol, 0.005% P20; conditions: protein: recombinant; tags: MBP fusion, MBP cleaved off; label: 3' biotin, 6-carbon linker
T2 sequence: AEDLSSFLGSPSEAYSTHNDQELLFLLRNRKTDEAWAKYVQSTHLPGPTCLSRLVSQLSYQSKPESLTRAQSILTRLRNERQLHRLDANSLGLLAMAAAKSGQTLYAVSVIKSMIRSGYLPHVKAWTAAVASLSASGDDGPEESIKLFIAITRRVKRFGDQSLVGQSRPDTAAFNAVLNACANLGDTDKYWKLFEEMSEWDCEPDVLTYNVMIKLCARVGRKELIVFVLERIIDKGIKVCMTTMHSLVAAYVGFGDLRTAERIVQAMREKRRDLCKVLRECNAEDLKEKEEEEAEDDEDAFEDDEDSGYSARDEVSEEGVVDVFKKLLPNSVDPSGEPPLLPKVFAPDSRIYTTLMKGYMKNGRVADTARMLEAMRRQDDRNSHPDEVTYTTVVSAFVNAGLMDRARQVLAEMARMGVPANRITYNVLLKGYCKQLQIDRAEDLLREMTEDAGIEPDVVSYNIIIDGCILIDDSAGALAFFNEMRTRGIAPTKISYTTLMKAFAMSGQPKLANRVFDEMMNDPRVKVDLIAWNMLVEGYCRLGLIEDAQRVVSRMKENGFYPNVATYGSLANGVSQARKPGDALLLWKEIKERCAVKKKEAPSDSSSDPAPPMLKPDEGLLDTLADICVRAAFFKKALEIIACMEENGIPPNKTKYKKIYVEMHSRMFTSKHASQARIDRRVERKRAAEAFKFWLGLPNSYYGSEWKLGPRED

HCF152 [3] = biological target: T2, HCF152; test: filter binding; 30 min and overnight (~13 h); tighter apparent KD overnight; EMSA: 40 mM Tris-HCl pH 7.5, 140 mM NaCl, 10% glycerol, 4 mM DTT, 0.1 mg/mL BSA, 0.5 mg/mL heparin, RNAsin, 5 pM RNA, 25 C, 30 min; SPR: 100 mM HEPES pH 7.5, 150 mM NaCl, 3 mM EDTA, 1 mM 2-mercaptoethanol, 0.005% P20; conditions: protein: recombinant; tags: MBP fusion, MBP cleaved off; label: 5' 32P
PPR10 [4] = biological target: T1, PPR10; test: EMSA; 0.5 mg/mL heparin, 140 mM NaCl; EMSA: 40 mM Tris-HCl pH 7.5, 140 mM NaCl, 10% glycerol, 4 mM DTT, 0.1 mg/mL BSA, 0.5 mg/mL heparin, RNAsin, 5 pM RNA, 25 C, 30 min; SPR: 100 mM HEPES pH 7.5, 150 mM NaCl, 3 mM EDTA, 1 mM 2-mercaptoethanol, 0.005% P20; conditions: protein: recombinant; tags: MBP fusion, MBP cleaved off; label: 5' 32P; unstructured

Binder GAUUGUAUCCUUAACCAUUUCUUUU (ssRNA) [atpH SPR RNA] has a Kd (PPR10 [1]) of ~0.01 nM.

UGGUAGUUCGACGUGGAUUUU (ssRNA) [petB SPR RNA]: binds (HCF152 [2]).

GGUAGUUCGACCGUGGA (ssRNA) [petB RNA (GMS/FB)]: binds (HCF152 [3]).

AUUGUAUCCUUAACCAUUUCUUU (ssRNA) [atpH-23mer] gave a Kd (PPR10 [4]) of ~0.05 nM.
